Literature values as cited in PMC6601554.

Target: Mouse neonatal Fc receptor (FcRn) (UniProt Q61559)
Test: not stated in this article

UniProt Q61559, sequence (Q61559 whole entry): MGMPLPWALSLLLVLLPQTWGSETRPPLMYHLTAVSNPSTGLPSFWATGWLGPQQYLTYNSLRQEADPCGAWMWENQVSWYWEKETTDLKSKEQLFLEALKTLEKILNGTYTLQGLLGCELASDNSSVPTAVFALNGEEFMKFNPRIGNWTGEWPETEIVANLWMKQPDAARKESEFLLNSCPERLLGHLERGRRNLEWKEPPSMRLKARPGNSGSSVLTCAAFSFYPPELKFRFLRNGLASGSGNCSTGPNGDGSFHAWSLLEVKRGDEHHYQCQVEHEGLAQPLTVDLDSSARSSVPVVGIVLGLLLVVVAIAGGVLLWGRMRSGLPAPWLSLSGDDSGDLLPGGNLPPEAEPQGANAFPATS

MST-HN human IgG1 (Abdeg; mutated humanized anti-hen egg lysozyme HuLys10) M252Y;S254T;T256E;H433K;N434F
Kd (pH 6.0): 1.2 nM | Kd (pH 7.2): 7.4 nM
